From patent publication US20160311911A1, “METHODS FOR TREATING ALLERGIC AIRWAY INFLAMMATION” (priority 2015, published 2016)

Experiments:
Format in all cases: cell-based
Details in all cases: 100 μg/mL for 18 hours
TCM^Hi cells = assay: CXCL8 levels in cell supernatants, TCM^Hi cells
Text: (§1) Three HEK 293 cell lines, TCM^Null (TLR4^Null, CD14^Null, MD2^Null), TLR4^Hi (TLR4^Hi, CD14^Null, MD2^Null) and TCM^hi (TLR4^Hi, CD14^Hi, MD2^Hi; InvivoGen, San Diego, Calif.), were used. In some experiments hTERT immortalized normal human bronchial epithelial cells (HBECs) were used, as previously described (17).
(§2) Measurement of CXCL8 levels in cell supernatants. TCM^Null, TLR4^Hi, TCM^Hi, TLR4^Hi-ST, or TLR4^Hi-MD2 cells were stimulated with RWPE, Bermuda grass, rye grass, pigweed, mountain cedar, cat dander, LPS, or Amb a 1 at 100 μg/mL for 18 hours. In some experiments HBECs, HBECs transfected with siRNA against MD2, or sham-transfected HBECs were starved for 24 hours and stimulated with RWPE, Bermuda grass, rye grass, timothy grass, pigweed, Russian thistle, cottonwood, walnut, and cat dander allergenic extracts. Cell supernatants were assayed for CXCL8.

TCM^Null cells = assay: CXCL8 levels in cell supernatants, TCM^Null cells
Text: as §1, §2

TLR4^Hi cells = assay: CXCL8 levels in cell supernatants, TLR4^Hi cells
Text: as §1, §2

B1: Amb a 1: major allergen in RWPE, a single protein (protein)
chain: AEDLQEILPVNETRRLTTSGAYNIIDGCWRGKADWAENRKALADCAQGFGKGTVGGKDGDIYTVTSELDDDVANPKEGTLRFGAAQNRPLWIIFERDMVIRLDKEMVVNSDKTIDGRGAKVEIINAGFTLNGVKNVIIHNINMHDVKVNPGGLIKSNDGPAAPRAGSDGDAISISGSSQIWIDHCSLSKSVDGLVDAKLGTTRLTVSNSLFTQHQFVLLFGAGDENIEDRGMLATVAFNTFTDNVDQRMPRCRHGFFQVVNNNYDKWGSYAIGGSASPTILSQGNRFCAPDERSKKNVLGRHGEAAAESMKWNWRTNKDVLENGAIFVASGVDPVLTPEQSAGMIPAEPGESALSLTSSAGVLSCQPGAPC
- CXCL8 secretion from TCM^Hi cells (TCM^Hi cells): induced CXCL8 secretion
- CXCL8 secretion from TCM^Null cells (TCM^Null cells): only in TCM^Hi cells
- CXCL8 secretion from TLR4^Hi cells (TLR4^Hi cells): only in TCM^Hi cells
